A short description of this data set: soluble on expression in E. coli; label from the status in PepcDB or PDB records.
Turning to “MQETRLMENEYSVNLPTKFWYRGKTYNGFINLVNIFRATMILGTPGSGKSYAIVNQFIKQTIEKSYALYIYDFKFDDLSVIAYNHLLKYRYRYKVPPKFYVINFDNPRKSHRCNPLAPELMTDISDAYESSYTIMLNLNKSWVQKQGDFFVESPIVLFTAIIWFLKIYEGGKFCTFPHAIELLNKRYEDVFTILTSYPDLENYLSPFIDAWKGGASEQLQGQIASAKIPLSRLISPQLYWVMSGSDFTLDINNPKEPKVLCVGNNPDRISIYGAALGLYNSRIVKLINKKKQLKSCVIIDELPTIFFKGLDNLIATARSNKVAVVLGFQDFSQLKRDYGDKEAAVIMSTVGNVFSGQVVGETAKTLSERFGKILQKRESMSINRNDTSTSINTQLDSLIPASKISTLSQGMFVGAVADNFGETIEQKIFHAQIVVDNEAVQKETAAYQPIPEISSFLDENGNDTMEQQIQANYRQIKQDIVELVENELIRIENDPELKYLLNNEM”, the “soluble on expression in E. coli” value is “not soluble”.

In the case of “MDELNPSPPVSEDPEHWYCTNMVGVPVGLIGSTAFNRCLRRITIHGTRETHPGLFRLLAACEYPATASEVFEHYMELEFGLAPGAHEPTQARYPTSYLDLLRGWGVESDCPKAAVLKGWVESRFGLVPTFHKQRLGLFPSSAWATYLQEKTDVRFHNNCIFQQFDLLYEYCQWSIRRFKTPGPRFVRLWRGTNDVEQQLVEGDARQRLCTVRLNNLVSFSDSKERAEEFGDWVLETEVPTVKLLFFPGLLQRQVLGYEGEFLVIGGNYKVRAYHGWFAAALEHHHHHH”, the “soluble on expression in E. coli” value is “not soluble”.

On to “MAHHHHHHMSSSAEEKEAKKQEELRLAGSDSEGVRAAVKAQRELKKKRDALRKVQKKIRSGGSDAEVAAAIEQEAALLAEIGHLEALRGASSAPSTAHVAAASFTSTPATAAASPGALVTVATNKSSGAKAARSGEPAKEITAEERAASAKRLHDLVQGAMDANRLKCLHVLPRDAVVHPRIAEVAVLMEQMLLVGGSARALALISAFRELSRTTTVLAVPSLNEVNTTAFEKLIQINFDFVRRKREASAGMRHVKDVLVRRFVALRDEVIHPKPNMVDLIKDL”, for which the “soluble on expression in E. coli” value is “not soluble”.

Take “MSQKLKVVTIGGGSSYTPELLEGFIKRYHELPVSELWLVDVEGGKPKLDIIFDLCQRMIDNAGVPMKLYKTLDRREALKDADFVTTQLRVGQLPARELDERIPLSHGYLGQETNGAGGLFKGLRTIPVIFDIVKDVEELCPNAWVINFTNPAGMVTEAVYRHTGFKRFIGVCNIPIGMKMFIRDVLMLKDSDDLSIDLFGLNHMVFIKDVLINGKSRFAELLDGVASGQLKASSVKNIFDLPFSEGLIRSLNLLPCSYLLYYFKQKEMLAIEMGEYYKGGARAQVVQKVEKQLFELYKNPELKVKPKELEQRGGAYYSDAACEVINAIYNDKQAEHYVNIPHHGQIDNIPADWAVEMTCKLGRDGATPHPRITHFDDKVMGLIHTIKGFEIAASNAALSGEFNDVLLALNLSPLVHSDRDAELLAREMILAHEKWLPNFADCIAELKKAH”: the “soluble on expression in E. coli” value is on record as “soluble”.

Regarding “MGSDKIHHHHHHMSIKTSNTDFKTRIRQQIEDPIMRKAVANAQQRIGANRQKMVDELGHWEEWRDRAAQIRDHVLSNLDAYLYQLSEKVTQNGGHVYFARTKEDATRYILQVAQRKNARKVVKSKSMVTEEIGVNHVLQDAGIQVIETDLGEYILQLDQDPPSHVVVPAIHKDRHQIRRVLHERLGYEGPETPEAMTLFIRQKIREDFLSAEIGITGCNFAVAETGSVCLVTNEGNARMCTTLPKTHIAVMGMERIAPTFAEVDVLITMLARSAVGARLTGYNTWLTGPREAGHVDGPEEFHLVIVDNGRSEVLASEFRDVLRCIRCGACMNTCPAYRHIGGHGYGSIYPGPIGAVISPLLGGYKDFKDLPYACSLCTACDNVCPVRIPLSKLILRHRRVMAEKGITAKAEQRAIKMFAYANSHPGLWKVGMMAGAHAASWFINGGKTPLKFGAISDWMEARDLPEADGESFRSWFKKHQAQEKKNG”, the “soluble on expression in E. coli” value is “not soluble”.

On to “MSRPRKRLAGTSGSDKGLSGKRTKTENSGEALAKVEDSNPQKTSATKNCLKNLSSHWLMKSEPESRLEKGVDVKFSIEDLKAQPKQTTCWDGVRNYQARNFLRAMKLGEEAFFYHSNCKEPGIAGLMKIVKEAYPDHTQFEKNNPHYDPSSKEDNPKWSMVDVQFVRMMKRFIPLAELKSYHQAHKATGGPLKNMVLFTRQRLSIQPLTQEEFDFVLSLEEKGPSLEHHHHHH”, for which the “soluble on expression in E. coli” value is given as “not soluble”.

Take “MKRLTIEMLPTLIGNEKLLVDCLFILFCTLKTKSLPPIRVLVRTNQSNLILDTLYEKLSKAVDKKLIFVASPEKPFDVIITDIFSEVSVKSTVPTYYVDFSASIGELAQSLENLNTQIVTKQSPRHF”: the “soluble on expression in E. coli” value was “not soluble”.

Consider “MDKQKVALVLSMGGARGIAHIGVIEELLRHNFEITSIAGSSMGAMVGAMYASGKLEECKEWLYSWDKRKMWELADLTLSRDGLVKGDRFIKELKQIIPVMNIEDLPIPYVAMATDIVCDQEVRFDSGNLYDAIRATISIPMLFRPLRKDGMVLIDGGILNPLP”, for which the “soluble on expression in E. coli” value is reported as “not soluble”.

As to “MGSDKIHHHHHHAQSDGWSPKDHNLIKSVREDGRFLSSYGVVHAMLRNTEPRYAFHRDFSPKEFRKWQKGLRHAMEEIMKFPQIKNSPAPVCIKREQREGYRLEKWEFYPLPKCVSTFLVLIPDNINKPVPAILCIPGSGGNKEGLAGEPGIAPKLNDRYKDPKLTQALNFVKEGYIAVAVDNPAAGEASDLERYTLGSNYDYDVVSRYLLELGWSYLGYASYLDMQVLNWMKTQKHIRKDRIVVSGFSLGTEPMMVLGTLDTSIYAFVYNDFLCQTQERAEVMTMPDKNGRRPFPNSIRHLIPDFWKNFNFPDIVAALAPRPIILTEGGLDRDLDLVRKAYAIVGTPDNVKIYHYKKFSDPDTRKNVEYLPEGLDRNEYFRMVNVDGPNHYFKSELVVPWLRKLLEER”, the “soluble on expression in E. coli” value is on record as “not soluble”.

In the case of “MGSDKIHHHHHHMGSLADTLRDRRQKLARLIDFPAILWSGGSNARNFPANRFPFRASSHFLYFAGLPLPNAAIHLEAGKLTLFIDDPAPGSALWHGETPKREEIAETIGADAAKPLSELTPFLAGAATIAVQDATTWTQQSQLLNRWVLPQSQPEGIDLELTKAIVTLRLIHDAGALAELRKAATVSVAAHKAGMVATANAKIEAEVRAAMESVFIAHNMTTAYNSIVTVHGEVLHNEQYHHPLQPGDLLLADVGGETELGWAADITRTWPVSGKFSPTQRDIYDVVLAAHDTCIANILPGVEYAEIHLVGARVIAEGLVNLGILRGNPEDLVEKDAHALFFPHGIGHLLGLDVHDMEDLGDLAGYEEGKKRSDRFGLGYLRLNRPLRTGMLVTIEPGFYQVPAILNDEKIRSRYQYTVNWERLSQFADVRGIRIEDDVLVTDTGSEVLTAALPNDADTVEHLVNKI”, the “soluble on expression in E. coli” value was “not soluble”.

As to “PMDDIVRIHASSGTTGKPTVVGYTRKDIEIWSELMARSFAAAGVHKGDIIHNAYGYGLFTGGLGAHYGAERLGASVIPMSGGNTKKQIMIMKDFGSTVLTCTPSYSLFMAEAAREEGVDFRQLKLHVGIFGAEPWSESMRAEIEQKLNLCAIDIYGLSEIMGPGVAIECREAKKGLHI”, the “soluble on expression in E. coli” value is recorded as “not soluble”.

For the sequence “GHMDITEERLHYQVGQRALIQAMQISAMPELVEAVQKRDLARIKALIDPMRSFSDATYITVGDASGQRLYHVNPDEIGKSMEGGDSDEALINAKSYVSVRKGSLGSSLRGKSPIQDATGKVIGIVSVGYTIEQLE”, the “soluble on expression in E. coli” value is given as “soluble”.

For the sequence “VAGPIAVGCYPALGPTILPSMLYAFTAEYPRASVEFREDTQNRLRTQLEGGELDVAIVYDLDLSPEWQTVPLMTREPMVVLGAEHPLAGVDGPVRLADLAEHPMVLLDAPPSTNHAMDVCREAGFAPRVAYRTANFETARAFVGRGLGWTLLLQRPRVDVTYEGLPVVVKPIAEPKPASVAVVVAWHQEATLSRVARAFIRFVTA”, the “soluble on expression in E. coli” value is listed as “soluble”.

In the case of “MTKIIPVASGKGGVGKTSFVANVGYKLSSLGKTVILVDLDLGGSNLHTCLGVKNKGVGIGSFINKKSKSFSDLVCKTSYDKLYLIPGDALYTGTANLPFSIKKKIIESIQKDLIADFIFLDLGSGTSYNTIDFYLASYSGVIVTIPETPSILNAYSFLKNALYRLLYLGFPQKSPERDYIGNFFKDKIEGTNLGFKDLVVGIELISLSSSLKVKRMMNNFYPRVVLNRIETSEEIAMCENLINVVKNNINIPIEFIGFVPFAKSFREAINNRVPFIDFEKNSKLNKYFEFIAGNLIKSPIEGSPYIYDDIYDMIKDQSRFIRKLEHHHHHH”, the “soluble on expression in E. coli” value is reported as “soluble”.

With “MGHHHHHHSHMNGFSTEEDSREGPPAAPAAAAPGYGQSCCLIEDGERCVRPAGNASFSKRVQKSISQKKLKLDIDKSVRHLYICDFHKNFIQSVRNKRKRKTSDDGGDSPEHDTDIPEVDLFQLQVNTLRRYKRHYKLQTRPGFNKAQLAETVSRHFRNIPVNEKETLAYFIYMVKSNKSRLDQKSEGGKQLE”, the “soluble on expression in E. coli” value is listed as “soluble”.

Take “MGKRKTKEDNASEDYDANELMIVPGEKRKKLEKSGEKSATGGKKNRNFAKEKEVAKLTKQAKRKLAAVQSRKALKQTQEELFAGLAEFQLDPSKLCQLSSSTKLSKEPEKAPVFPEKLKVFSGKTKTEAKRTQQDYYPTDDESSSEEEEEEEEGDNDIEDAGNTVEVKIEPIDLDDVDEAIDGNPETNLDQIVVKREDDEESDNEDILALPTTTVINRKKVIVERSKEIQKSRAELPIFAEEMRIVEAINENLVTVVCGETGSGKTTQIPQFLYEAGYASEGELIGITEPRRVAAIAMAQRVGVELAKPDEVSYQIRYEGTRSETTNILFMTDGVLMKEMEQDVMLKKYSVILIDEAHERSMYSDVLIGMLSRIVPLRSKTARPLRLVIMSATLRLDDFTHKKLFPLLTPKVIKVDARQFPVSVHFEKRTPDDYIASAFRKTCRIHETLPPGAILVFVTGQHEVKQLITKLKKRYPVVYETDKNGEVLVKGTKEWKEKKVEAAKSIKLEDFKEETPETEDFEDVDDGLMDGDDMNERGAAEAFDDYEEFENGDGDLSDGKVENSIGAPPADCEPLYCLPLYSLLSMGKQRRVFDETPAGMRLCVISTNVAETSLTIPGVKYVIDGGFEKRRLYDSITGVSRFAVCRISQASGDQRAGRAGRISAGHAYRLYSSAVYQDFVKFADPEILSKPADQLVLHLKSMNIVKVVNFPFPSAPDEQMLESAEKRLCRLGALSESTKNGKTEARITKLGKTLAVFPLAPSYAKFIAMADQHNLMSHAILLISLLSVREPLIPVSSLRGDTPEETKELMKNVLKERRRWCSHTGARRLGDLKVLMHAASVAEQIKYNARECEKVGLRVKALVEARKLRQQLTNIVNASCKKEHAAALDSDLPPPTDQQAQLLRQMVVASFSDRLARRVDRSVGQEEVQKGAYETTLIKGHVFIDPCSVVFTEEPEFVIYQELVQVNEKKLMTSVCAVDKEWLSRLAESYCNYGEQDKNQEPIYDPVKDMVVKTVKVTFGPLNWELPNENRSVPHDIMMYRYFALFLLDGLVFEKLKEYTPKLLAPPSTMVKSWAKLQKRTEMLLNKLIEKEVTTRSSLKEQWLKNENWLLEEYLEWVPESVHQQISLMWPPLEDHEKTIKMGRNKKY”: the “soluble on expression in E. coli” value is “not soluble”.

Turning to “MKQKKAWAIVKEVIEEADIVVEVVDARDPIGTRNKKLERMVLESGKKLLLVMNKADLVPKEWAEEYKRKSEIPVVFISARERKGTGILRRELKKIAKMINKERVKVALIGYPNVGKSTIINVLKGKHSVGTAPIPGYTKGKQMIRLTKKIWLLDTPGVVPIDDFDELVIKGGFPADKIREPVKPALKLIRRILETRKEALTEKFNITEFEDEEDILRKIGERRGIIREGGVVDIEETARWFLREWQTGRFTLFSTEEKREEEYIESFDEILEIIKEQNLTDPRMIIWKFGNILEDYLGAERRFGAIKVGEFMIAIATGFKKCPNAIKFVERITRKNAVAAECFGKKWKGIVAILE”, the “soluble on expression in E. coli” value is reported as “soluble”.
